# In article PMC2291454, “Functional characterisation of the TSC1–TSC2 complex to assess multiple TSC2 variants identified in single families affected by tuberous sclerosis complex” (BMC Medical Genetics, 2008):
# T1: TSC1 (human, UniProt Q92574 1-1164)
# T1 sequence (looked up): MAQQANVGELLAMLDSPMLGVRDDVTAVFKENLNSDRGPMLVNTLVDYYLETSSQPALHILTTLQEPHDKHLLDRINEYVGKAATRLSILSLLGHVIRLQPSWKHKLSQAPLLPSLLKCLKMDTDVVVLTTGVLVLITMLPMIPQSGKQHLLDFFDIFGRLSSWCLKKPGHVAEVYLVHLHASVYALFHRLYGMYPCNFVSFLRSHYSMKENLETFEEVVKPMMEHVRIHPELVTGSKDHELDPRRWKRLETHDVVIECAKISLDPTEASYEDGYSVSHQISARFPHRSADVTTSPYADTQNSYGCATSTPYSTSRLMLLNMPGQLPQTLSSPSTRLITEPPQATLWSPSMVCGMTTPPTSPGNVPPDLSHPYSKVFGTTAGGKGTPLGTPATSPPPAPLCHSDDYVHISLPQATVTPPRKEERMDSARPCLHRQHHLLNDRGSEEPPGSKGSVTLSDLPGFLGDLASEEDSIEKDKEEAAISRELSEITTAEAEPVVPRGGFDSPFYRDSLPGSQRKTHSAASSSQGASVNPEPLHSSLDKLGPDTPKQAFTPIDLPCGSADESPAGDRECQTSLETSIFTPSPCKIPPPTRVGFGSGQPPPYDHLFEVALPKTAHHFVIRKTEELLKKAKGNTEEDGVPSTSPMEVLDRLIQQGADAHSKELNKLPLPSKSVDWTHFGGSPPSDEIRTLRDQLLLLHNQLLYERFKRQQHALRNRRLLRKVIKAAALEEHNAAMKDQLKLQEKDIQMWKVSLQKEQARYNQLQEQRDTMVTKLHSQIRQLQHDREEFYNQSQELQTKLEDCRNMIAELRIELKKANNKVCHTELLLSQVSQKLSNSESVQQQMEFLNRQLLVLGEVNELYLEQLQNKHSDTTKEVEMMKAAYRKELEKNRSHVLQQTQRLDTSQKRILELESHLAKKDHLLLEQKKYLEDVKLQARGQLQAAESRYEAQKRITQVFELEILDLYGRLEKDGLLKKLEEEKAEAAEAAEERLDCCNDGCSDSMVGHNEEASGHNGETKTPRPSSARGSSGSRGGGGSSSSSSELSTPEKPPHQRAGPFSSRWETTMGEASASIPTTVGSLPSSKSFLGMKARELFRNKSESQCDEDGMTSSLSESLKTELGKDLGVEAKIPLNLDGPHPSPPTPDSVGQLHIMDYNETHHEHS
# Target: T1, TSC1
# Experiment: cell-based or functional assay
in vitro rheb GAP activity of the immunoprecipitated TSC1–TSC2 complex: rheb-bound GDP/GTP ratio after 90 minutes,in vitro rheb GAP activity of the immunoprecipitated TSC1–TSC2 variant complex: rheb-bound GDP/GTP ratio after 90 minutes,Binder
1.4,–,wild-type TSC2 (natural protein) not shown
–,0.9,TSC2 I820del variant (natural protein) not shown
